The record followed here is publication PMC4595804, “A strategy to discover decoy chemokine ligands with an anti-inflammatory activity” (Scientific Reports, 2015).

One test deals with CXCR4 (Homo sapiens, UniProt P61073). As to conditions: EGFP-CXCR4+ HEK cells, 1 h preincubation.
Test [1] addresses T1, CCR4 (Homo sapiens, UniProt P51679).
T1 construct: signal peptide fused to EGFP (N); expressed in transfected cells; host or cells: HEK-293
T1 sequence (P51679 1-360): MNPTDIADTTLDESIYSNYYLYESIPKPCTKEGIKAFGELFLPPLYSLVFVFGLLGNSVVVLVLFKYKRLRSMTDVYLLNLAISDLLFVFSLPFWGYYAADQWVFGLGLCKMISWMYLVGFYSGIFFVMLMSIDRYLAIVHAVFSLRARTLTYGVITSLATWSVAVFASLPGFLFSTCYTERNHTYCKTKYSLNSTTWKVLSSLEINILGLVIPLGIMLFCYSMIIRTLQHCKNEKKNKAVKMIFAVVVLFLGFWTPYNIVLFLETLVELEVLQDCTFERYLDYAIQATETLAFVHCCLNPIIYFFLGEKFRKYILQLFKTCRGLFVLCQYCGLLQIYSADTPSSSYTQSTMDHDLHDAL
Kind of test: Dose-response of chemokine-induced calcium responses in EGFP-CCR4+Gqi5+ HEK cells. In kind it is cell-based. As to conditions: recombinant chemokine, + Gqi5, 21 °C. As to the method: EGFP-CCR4^+Gqi5^+HEKcells were loaded with fluorescent Ca^2+-indicator Indo-1 AM (5μM, Interchim) for 45 min at 37 °C. The cells were detached in PBS-EDTA (5 mM) for 2 min, suspended in growth medium, pelleted by centrifugation at 320 × g for 5 min, and resuspended in HEPES-BSA buffer (137.5 mM NaCl, 6 mM KCl, 1.25 mM CaCl2, 1.25 mM MgCl2, 0.4 mM NaH2PO4, 5.6 mM glucose, 10 mM HEPES, BSA (0.1%, w/v), pH 7.4). Cells (100,000 cells/well, 100μl) were seeded in black clear bottom 96-well plates (Greiner), and centrifuged at 250 × g for 5 min.
Dye loaded cells were placed in the FlexStation 3 (Molecular Devices). Calcium mobilization was measured at 401 and 475 nm emission fluorescence after excitation at 355 nm. […] Raw fluorescence data (at 401 and 475 nm) were exported and the ratio 401/475 was calculated. The calcium response values (height of peak response over baseline) were determined. […] The Z’ factor[29] was calculated according to the following equation: Z’ = 1-(3SD+ + 3SD−)/|Ave+ − Ave−|, where SD+ and Ave+ are respectively the standard deviation and the mean value of the positive controls (chemokine + DMSO), while SD− and Ave− are respectively the standard deviation and the mean value of the negative controls (HEPES-BSA (0.1%) mixed with DMSO, or cells mixed with C-021). […]

Test [2] has as its target T1, CCR4. Nature of the test: EGFP-CCR4 receptor surface level / endocytosis on EGFP-CCR4+ HEK cells. As to conditions: 100 nM chemokine, 30 min, EGFP-CCR4+ HEK cells. The test is classed as cell-based. As to the method: CCR4 levels were evaluated by flow cytometry (FACSCalibur, BD biosciences) using cell surface labeling of EGFP with monoclonal mouse anti-GFP (Roche Applied Science; 1:100 dilution) as primary antibody and R-phycoerythrin conjugated AffiniPure F (ab’)2 fragment goat anti-mouse (Immunotech; 1/100) as secondary antibody.

Usually EC50 stands for the midpoint of the concentration-response curve.

CXCR4, sequence (P61073 whole entry): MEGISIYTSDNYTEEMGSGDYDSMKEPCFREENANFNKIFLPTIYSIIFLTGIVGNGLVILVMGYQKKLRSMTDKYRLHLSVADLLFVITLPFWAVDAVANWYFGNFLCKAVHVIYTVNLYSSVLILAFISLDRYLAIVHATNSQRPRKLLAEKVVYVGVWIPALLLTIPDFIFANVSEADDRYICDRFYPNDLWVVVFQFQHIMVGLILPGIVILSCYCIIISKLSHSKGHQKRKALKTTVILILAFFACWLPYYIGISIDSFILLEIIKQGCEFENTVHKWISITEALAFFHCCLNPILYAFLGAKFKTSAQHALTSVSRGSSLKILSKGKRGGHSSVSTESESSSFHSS
Description for CXCR4: The identification of neutraligands relies on the measurement of kinetic-based calcium responses.
Monitoring calcium responses in a time-resolved manner allows the discrimination of compounds binding to the chemokine from those binding to the receptor. This is achieved using a pre-incubation protocol in which the tested compounds are preincubated with the receptor or with the chemokine prior to calcium monitoring. […] These incubation protocols are named Time-Resolved Intracellular Calcium recordings (TRIC-r) allowing the identification of neutraligands versus receptor antagonists.

In the case of `c1cc(CN2CCCNCCNCCCNCC2)ccc1CN1CCCNCCNCCCNCC1` [AMD3100], at CXCR4, the “amplitude of CXCL12 calcium responses, preincubation with the chemokine compared with preincubation with the receptor” value is “much greater”.

B1: CCL17: recombinant human chemokine (Thymus and Activation-Regulated Chemokine), CCR4 agonist, produced in E. coli (protein)
chain: ARGTNVGRECCLEYFKGAIPLRKLKTWYQTSEDCSRDAIVFVTVQGRAICSDPNNKRVKNAVKYLQSLERS
modifications: left off: thioredoxin (TRX), N-terminal, cleaved | His6, N-terminal, cleaved
As for B1, the EC50 with CCR4 [1] amounted to 3.7 ± 0.4 nM. Also, the “CCR4 internalization (receptor endocytosis) induced by the chemokine” value with CCR4 [2] is on record as “approximately 43.0 ± 3.0%”.

B2: CCL22: recombinant human chemokine (Macrophage-Derived Chemokine), CCR4 agonist, produced in E. coli (protein)
chain: GPYGANMEDSVCCRDYVRYRLPLRVVKHFYWTSDSCPRPGVVLLTFRDKEICADPRVPWVKMILNKLSQ
modifications: left off: thioredoxin (TRX), N-terminal, cleaved | His6, N-terminal, cleaved
notes: recombinant human chemokine (Macrophage-Derived Chemokine), CCR4 agonist, produced in E. coli
Consider B2, for which, in the test with CCR4 [1], the EC50 came to 2.9 ± 0.5 nM. Besides, the “CCR4 internalization (receptor endocytosis) induced by the chemokine” value with CCR4 [2] is 78.0 ± 3.0%.
